Experiment [1] concerns the target T1, FimA-FimAt (the two subunits of the ternary FimCAA complex) (E. coli) (UniProt P04128).
T1 sequence (P04128 24-182, looked up): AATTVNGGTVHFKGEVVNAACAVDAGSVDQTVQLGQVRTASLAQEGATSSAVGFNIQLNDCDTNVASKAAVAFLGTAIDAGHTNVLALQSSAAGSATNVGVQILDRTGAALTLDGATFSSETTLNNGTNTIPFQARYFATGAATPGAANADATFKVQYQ
As to the kind of experiment: chaperone exchange kinetics followed by analytical cation exchange chromatography; 4 μM complex incubated with a 9-fold molar excess (36 μM) of the differently tagged FimC (untagged FimC against FimCHis complexes, FimCHis against FimCA and FimCAA); 20 mM MES-NaOH pH 6.0, 37 °C; single-exponential fit.

The target in experiment [2] is Fluorescein-labeled FimDN (E. coli). Briefly: stopped-flow fluorescence kinetics; fluorescein-labeled FimDN (0.4 μM) mixed with different concentrations of FimCI; 23 °C, 20 mM Tris-HCl pH 8.0; traces fitted globally to second-order binding and first-order dissociation.
Fluorescein-labeled FimDN (E. coli), sequence (P30130 46-170 limits assumed): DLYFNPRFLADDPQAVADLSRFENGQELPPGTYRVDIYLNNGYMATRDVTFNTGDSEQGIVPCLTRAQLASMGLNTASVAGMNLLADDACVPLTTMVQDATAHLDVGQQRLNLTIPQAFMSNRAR

FimC-FimI complex (FimCI), sequence (P31697 37-241): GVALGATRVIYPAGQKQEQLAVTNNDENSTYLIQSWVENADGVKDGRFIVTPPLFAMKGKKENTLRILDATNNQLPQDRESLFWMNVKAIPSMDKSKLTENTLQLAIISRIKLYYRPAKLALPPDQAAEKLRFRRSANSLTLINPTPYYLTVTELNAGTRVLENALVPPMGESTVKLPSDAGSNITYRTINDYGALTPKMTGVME
FimC-FimI complex (FimCI), sequence (P39264 20-179): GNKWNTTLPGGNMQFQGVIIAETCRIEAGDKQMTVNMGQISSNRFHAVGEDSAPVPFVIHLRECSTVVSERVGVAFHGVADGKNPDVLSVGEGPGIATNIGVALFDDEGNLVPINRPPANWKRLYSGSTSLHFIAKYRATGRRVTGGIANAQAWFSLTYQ
FimC, sequence (P31697 37-241): as the sequence (P31697 37-241) above

“FimC (from UniProt P31697 37-241) (natural protein)”: the dissociation half-life in experiment [1] was found to be 17.7 min. In experiment [2], “FimC-FimI complex (FimCI) (from UniProt P31697 37-241; P39264 20-179)” came in with a koff of 94 s⁻¹ and a kon of 1.45e+08 M⁻¹ s⁻¹.

The record behind these values is paper PMC10673952.
